# Measurements published in publication PMC4139157.
# Target: human plasma fibrinogen (human) (UniProt P02671)
# Assay: ELISA
# Chain of UniProt P02671 (P02671 36-866, chain 1 of 3): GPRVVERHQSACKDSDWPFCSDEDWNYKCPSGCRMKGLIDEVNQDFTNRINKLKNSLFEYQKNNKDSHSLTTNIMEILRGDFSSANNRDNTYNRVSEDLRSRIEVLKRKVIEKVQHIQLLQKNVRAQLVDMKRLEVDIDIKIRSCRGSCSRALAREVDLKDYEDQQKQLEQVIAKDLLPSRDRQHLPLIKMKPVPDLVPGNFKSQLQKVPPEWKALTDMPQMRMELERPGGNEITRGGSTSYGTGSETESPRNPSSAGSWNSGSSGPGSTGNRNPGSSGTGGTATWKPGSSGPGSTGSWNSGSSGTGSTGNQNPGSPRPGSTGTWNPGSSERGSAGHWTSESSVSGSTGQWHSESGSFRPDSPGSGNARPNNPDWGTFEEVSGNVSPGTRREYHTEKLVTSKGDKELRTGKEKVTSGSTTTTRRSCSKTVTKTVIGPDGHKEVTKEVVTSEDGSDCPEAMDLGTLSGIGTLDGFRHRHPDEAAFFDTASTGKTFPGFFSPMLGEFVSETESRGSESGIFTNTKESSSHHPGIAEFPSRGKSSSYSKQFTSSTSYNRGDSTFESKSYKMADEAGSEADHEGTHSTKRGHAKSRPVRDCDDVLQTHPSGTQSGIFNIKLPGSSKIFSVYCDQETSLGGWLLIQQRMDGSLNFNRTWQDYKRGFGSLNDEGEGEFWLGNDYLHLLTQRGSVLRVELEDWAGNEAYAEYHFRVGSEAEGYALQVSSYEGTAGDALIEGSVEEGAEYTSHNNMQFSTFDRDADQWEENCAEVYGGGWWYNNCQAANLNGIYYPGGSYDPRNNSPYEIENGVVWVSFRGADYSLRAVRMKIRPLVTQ
# Chain of UniProt P02671 (P02675 45-491, chain 2 of 3, further chain): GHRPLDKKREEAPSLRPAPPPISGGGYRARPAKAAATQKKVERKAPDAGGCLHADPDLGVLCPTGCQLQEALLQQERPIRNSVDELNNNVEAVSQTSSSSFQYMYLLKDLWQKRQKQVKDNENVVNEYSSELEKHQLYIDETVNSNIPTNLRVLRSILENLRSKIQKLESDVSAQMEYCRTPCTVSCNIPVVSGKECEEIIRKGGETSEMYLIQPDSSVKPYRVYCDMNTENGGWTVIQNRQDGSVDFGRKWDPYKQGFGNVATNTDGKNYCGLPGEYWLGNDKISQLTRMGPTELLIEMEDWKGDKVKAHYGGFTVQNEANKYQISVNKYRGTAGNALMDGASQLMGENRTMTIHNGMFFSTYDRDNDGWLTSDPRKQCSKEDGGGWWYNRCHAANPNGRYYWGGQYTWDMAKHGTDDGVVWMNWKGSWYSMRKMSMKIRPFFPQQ
# Chain of UniProt P02671 (P02679 27-453, chain 3 of 3, further chain): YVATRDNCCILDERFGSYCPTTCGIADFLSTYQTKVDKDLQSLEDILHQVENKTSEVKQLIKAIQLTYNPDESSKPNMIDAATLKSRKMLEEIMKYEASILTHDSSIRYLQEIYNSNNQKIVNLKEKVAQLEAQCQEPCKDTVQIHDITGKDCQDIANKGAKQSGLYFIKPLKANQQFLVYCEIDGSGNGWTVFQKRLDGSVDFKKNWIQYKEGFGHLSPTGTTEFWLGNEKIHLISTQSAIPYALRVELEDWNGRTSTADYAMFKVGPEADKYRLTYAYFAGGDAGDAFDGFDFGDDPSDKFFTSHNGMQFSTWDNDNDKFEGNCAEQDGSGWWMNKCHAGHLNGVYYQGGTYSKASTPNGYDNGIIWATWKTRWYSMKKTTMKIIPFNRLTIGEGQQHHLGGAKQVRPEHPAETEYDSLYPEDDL
row,Substance,Kd
1,Histidine-tagged LigB-12 (amino acids 1029–1123 of LigB) (domain or fragment),125 µM
2,Histidine-tagged LigBCen2R (amino acids 1014–1123 of LigB) (domain or fragment),117 µM
